Data reported in patent publication WO2024071112A1 (dated 2024).

Target: T1, human plasminogen (human, UniProt P00747 20-810, limits assumed)
T1 construct: also called Plg
Assay: ELISA, plate-coated human plasminogen, His-tagged VK and VH peptides bridged and detected by rabbit anti-His tag IgG and HRP anti-rabbit IgG, A450

T1 sequence (P00747 20-810 limits assumed): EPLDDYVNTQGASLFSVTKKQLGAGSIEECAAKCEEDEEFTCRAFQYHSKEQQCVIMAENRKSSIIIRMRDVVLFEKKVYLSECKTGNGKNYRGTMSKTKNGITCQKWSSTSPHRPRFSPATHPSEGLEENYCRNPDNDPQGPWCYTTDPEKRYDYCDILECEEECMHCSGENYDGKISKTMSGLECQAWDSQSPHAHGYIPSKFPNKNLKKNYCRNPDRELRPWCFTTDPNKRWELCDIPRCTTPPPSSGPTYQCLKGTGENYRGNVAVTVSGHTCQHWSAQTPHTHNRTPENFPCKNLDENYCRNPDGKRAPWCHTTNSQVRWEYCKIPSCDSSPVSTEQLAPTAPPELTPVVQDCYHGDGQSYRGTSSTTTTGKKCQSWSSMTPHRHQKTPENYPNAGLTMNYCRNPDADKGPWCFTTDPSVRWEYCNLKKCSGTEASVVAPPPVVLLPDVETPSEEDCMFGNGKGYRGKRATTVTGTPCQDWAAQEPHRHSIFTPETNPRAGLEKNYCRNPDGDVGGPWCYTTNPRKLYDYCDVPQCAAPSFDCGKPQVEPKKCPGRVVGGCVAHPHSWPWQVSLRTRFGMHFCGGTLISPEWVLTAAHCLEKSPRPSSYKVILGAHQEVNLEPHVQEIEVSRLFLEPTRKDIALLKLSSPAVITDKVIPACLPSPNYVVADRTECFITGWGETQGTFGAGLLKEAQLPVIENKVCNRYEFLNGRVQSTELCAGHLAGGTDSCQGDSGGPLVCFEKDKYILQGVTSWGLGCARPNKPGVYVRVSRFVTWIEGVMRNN

binding result: binds
B1: VKc4+VHc1 (His-tagged VKc4 domain peptide combined with His-tagged VHc1 domain peptide) (other)
VL: RSDILMTQSPSSMSVSLGDTVSITCHASQGISSNIGWLQQKPGKSFKGLIYHGTNLEDGVPSRFSGSGSGADYSLTITSLESEDFADYYCVQYAQFPWTFGGGTKLEIKDIPWQGLNDIFEAQKIEWHGSHHHHHH
VH: RSEVQLQQSGAELVKPGASVKLSCTASGFNIKDYYMHWVKQRTEQGLEWIGRIDPEDGETKYAPKFQGKATITADTSSNTAYLQLSSLTSEDTAVYYCAPLLGREDYWGQGTTLTVSSDIPWQGLNDIFEAQKIEWHGSHHHHHH
notes: Two separate His-tagged mouse variable domain peptides made in E. coli (crude lysis supernatant), not covalently linked; in the ELISA they are bridged by polyclonal rabbit anti-His tag IgG; also called Kc4Hc1
